Positions count from the first letter of the chain named. Like-named read-outs stand apart in the source and are kept apart here.
Assays:
[1] = molecular target: T1, recombinant human TfR (2474-TR, R&D Systems), biotinylated (human, UniProt P02786 89-760, biotinylated with EZ-Link NHS-PEG4-Biotinylation Kit); assay: SPR (Biacore), biotinylated human TfR captured on an SA chip, VHH injected, 1:1 dissociation fit, pH 7.4
T1 construct: Bought protein; also called immobilized recombinant human TfR; biotinylated human TfR
Experimental: (§1) E. coli TG1 bacteria were transformed with those plasmids and expressions induced. Crude extracts were prepared and analyzed for binding by flow cytometry on human TfR overexpressing cells. […] Next, off rates of these selected variants were determined on recombinant human TfR by surface plasmon resonance (Biacore, Marlborough, Massachusetts, United States). Biotinylated human TfR was captured on a streptavidin-coated SA sensor chip (Cytiva). Increasing concentrations of nanobodies were sequentially injected in a single cycle at a flow rate of 30 μL/min. The dissociation was monitored for around 20 min. A reference flow was used as a control for non-specific binding and refractive index changes. Several buffer blanks were used for double referencing. Off rates were derived after fitting the experimental data to the 1:1 binding model with the Biacore Evaluation Software.
(§2) Surface Plasmon Resonance (SPR) was used to measure the interaction between VHHs and human or cynomolgus TfR receptor. Human TfR (2474-TR, R&D Systems) and cynomolgus TfR (90253-C07H, Sino Biological) were biotinylated with the EZ-Link NHS-PEG4-Biotinylation Kit (ThermoFischer Scientific) according to the manufacturer instructions. The binding experiments were performed at 25° C. on a Biacore T200 instrument (Cytiva, Uppsala, Sweden) in HBS-EP+ buffer (10 mM HEPES, 150 mM NaCl, 3 mM EDTA and 0.05% v/v Surfactant P20). Biotinylated human TfR and cynomolgus TfR were captured on a SA sensor chip (Cytiva) at a density of around 250 RU. Increasing concentrations of VHHs were sequentially injected in one single cycle at a flow rate of 30 μl/min. The dissociation was monitored for 20 min. […] A reference flow was used as a control for non-specific binding and refractive index changes. Several buffer blanks were used for double referencing. Binding affinities (KD) and kinetic rate constants (kₒₙ, koff) were derived after fitting the experimental data to the 1:1 binding model with the Biacore T200 Evaluation Software 3.1 using the single cycle kinetic procedure.

[2] = molecular target: T1, recombinant human TfR (2474-TR, R&D …); assay: SPR (Biacore), biotinylated human TfR captured on an SA chip, VHH injected, 1:1 dissociation fit, pH 5.5
Experimental: as §1, §2

[3] = molecular target: T1, recombinant human TfR (2474-TR, R&D …); assay: SPR (Biacore), ratio of the off rates on human TfR at the two pH values; the printed number equals kd at pH 5.5 divided by kd at pH 7.4
Experimental: as §1, §2

[4] = molecular target: T1, recombinant human TfR (2474-TR, R&D …); assay: SPR (Biacore), biotinylated human TfR captured on an SA chip, VHH injected, 1:1 dissociation fit, pH 5.5; remark: listed apart in the source
Experimental: as §1, with “In brief, DNA was synthesized by Genscript (Piscataway, New Jersey, United States) and cloned into an E. coli compatible expression plasmid according to standard methods. E.” for “E.”

[5] = molecular target: T1, recombinant human TfR (2474-TR, R&D …); assay: SPR (Biacore), ratio of the off rates on human TfR at the two pH values; the printed number equals kd at pH 5.5 divided by kd at pH 7.4; remark: listed apart in the source
Experimental: as §1, with “In brief, DNA was synthesized by Genscript (Piscataway, New Jersey, United States) and cloned into an E. coli compatible expression plasmid according to standard methods. E.” for “E.”

[6] = molecular target: T1, recombinant human TfR (2474-TR, R&D …); assay: SPR (Biacore), biotinylated human TfR captured on an SA chip, VHH injected, 1:1 dissociation fit, pH 7.4; remark: listed apart in the source
Experimental: as §1, with “In brief, DNA was synthesized by Genscript (Piscataway, New Jersey, United States) and cloned into an E. coli compatible expression plasmid according to standard methods. E.” for “E.”

T1 sequence (P02786 89-760 limits assumed): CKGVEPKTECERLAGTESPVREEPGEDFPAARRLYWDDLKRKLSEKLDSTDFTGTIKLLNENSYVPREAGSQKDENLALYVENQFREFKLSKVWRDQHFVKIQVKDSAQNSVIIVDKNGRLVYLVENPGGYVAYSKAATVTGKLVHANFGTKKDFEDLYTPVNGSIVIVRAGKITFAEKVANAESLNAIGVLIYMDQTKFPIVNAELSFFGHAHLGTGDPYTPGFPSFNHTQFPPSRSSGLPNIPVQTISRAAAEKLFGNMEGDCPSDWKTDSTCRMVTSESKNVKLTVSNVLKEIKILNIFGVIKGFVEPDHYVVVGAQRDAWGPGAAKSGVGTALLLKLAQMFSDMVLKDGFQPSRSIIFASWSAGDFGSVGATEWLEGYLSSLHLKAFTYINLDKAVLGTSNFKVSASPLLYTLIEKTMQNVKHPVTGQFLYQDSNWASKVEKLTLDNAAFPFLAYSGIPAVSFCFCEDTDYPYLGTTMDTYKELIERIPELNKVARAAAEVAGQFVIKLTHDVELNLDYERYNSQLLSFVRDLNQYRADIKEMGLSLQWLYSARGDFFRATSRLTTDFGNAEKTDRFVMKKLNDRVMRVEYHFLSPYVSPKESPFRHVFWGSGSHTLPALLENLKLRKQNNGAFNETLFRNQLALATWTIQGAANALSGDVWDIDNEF

B1: BBB00736 (VHH)
VHH: EVQLVESGGGLVQAGGSLRLSCAASGSIFSINAMGWYRQAPGKQRELVAVITSGGSTIYADSVKGRFTISRDNAENTVYLQMNSLRPEDTAVYYCNAHVGLKVPTIQELSLGFGSWGQGTLVTVSS
notes: also called variant of BBB00515
B1 was tested, and the koff [1] was 0.00782 s⁻¹, the koff [2] was 0.0183 s⁻¹ and the “off-rate ratio kd pH5.5/kd pH7.4” value [3] was 2.35.

B2: BBB00737 (VHH)
VHH: B1 VHH with G26H
notes: Histidine mutant
For B2, the koff [1] was 0.00861 s⁻¹, the koff [2] was 0.02 s⁻¹ and the “off-rate ratio kd pH5.5/kd pH7.4” value [3] was 2.32.

B3: BBB00738 (VHH)
VHH: B1 VHH with S27H
notes: Histidine mutant
With B3 the koff [1] was 0.00918 s⁻¹, the koff [2] was 0.0171 s⁻¹ and the “off-rate ratio kd pH5.5/kd pH7.4” value [3] was 1.86.

B4: BBB00739 (VHH)
VHH: B1 VHH with I28H
notes: also called histidine mutant of BBB00533
B4 was tested, and the koff [1] was 0.00761 s⁻¹, the koff [2] was 0.0223 s⁻¹ and the “off-rate ratio kd pH5.5/kd pH7.4” value [3] was 2.93.

B5: BBB00740 (VHH)
VHH: B1 VHH with F29H
notes: Histidine mutant
With B5 the koff [1] was 0.00954 s⁻¹, the koff [2] was 0.0221 s⁻¹ and the “off-rate ratio kd pH5.5/kd pH7.4” value [3] was 2.32.

B6: BBB00741 (VHH)
VHH: B1 VHH with S30H
notes: as for B4
With B6 the koff [1] was 0.00551 s⁻¹, the koff [2] was 0.0151 s⁻¹ and the “off-rate ratio kd pH5.5/kd pH7.4” value [3] was 2.74.

B7: BBB00745 (VHH)
VHH: B1 VHH with M34H
notes: Histidine mutant
B7 was tested, and the koff [1] was 0.00773 s⁻¹, the koff [2] was 0.0161 s⁻¹ and the “off-rate ratio kd pH5.5/kd pH7.4” value [3] was 2.08.

B8: BBB00756 (VHH)
VHH: B1 VHH with V99H
notes: as for B4
B8 was tested, and the koff [1] was 0.00735 s⁻¹, the koff [2] was 0.019 s⁻¹ and the “off-rate ratio kd pH5.5/kd pH7.4” value [3] was 2.58.

B9: BBB00758 (VHH)
VHH: B1 VHH with L101H
notes: as for B4
B9 was tested, and the koff [1] was 0.00908 s⁻¹, the koff [2] was 0.0657 s⁻¹ and the “off-rate ratio kd pH5.5/kd pH7.4” value [3] was 7.24.

B10: BBB00763 (VHH)
VHH: B1 VHH with I106H
notes: as for B4
In the case of B10, the koff [1] is reported as 0.00933 s⁻¹, the koff [2] is reported as 0.022 s⁻¹ and the “off-rate ratio kd pH5.5/kd pH7.4” value [3] is reported as 2.36.

B11: BBB00764 (VHH)
VHH: B1 VHH with Q107H
notes: Histidine mutant
In the case of B11, the koff [1] is reported as 0.0102 s⁻¹, the koff [2] is reported as 0.0206 s⁻¹ and the “off-rate ratio kd pH5.5/kd pH7.4” value [3] is reported as 2.02.

B12: BBB00767 (VHH)
VHH: B1 VHH with S110H
notes: Histidine mutant
B12 was tested, and the koff [1] was 0.00507 s⁻¹, the koff [2] was 0.0113 s⁻¹ and the “off-rate ratio kd pH5.5/kd pH7.4” value [3] was 2.23.

B13: BBB00770 (VHH)
VHH: B1 VHH with F113H
notes: as for B4
B13 was tested, and the koff [1] was 0.00727 s⁻¹, the koff [2] was 0.0245 s⁻¹ and the “off-rate ratio kd pH5.5/kd pH7.4” value [3] was 3.37.

B14: BBB00771 (VHH)
VHH: B1 VHH with G114H
notes: Histidine mutant
In the case of B14, the koff [1] is reported as 0.011 s⁻¹, the koff [2] is reported as 0.0183 s⁻¹ and the “off-rate ratio kd pH5.5/kd pH7.4” value [3] is reported as 1.67.

B15: BBB00677 (VHH)
VHH: EVQLVESGGGSVQPGGSLRLSCTASGRTFNYAMGWFRQAPGKNREFVATIDWKDGSSYYLDSVRGRFTIERDDAKNTVYLQMNSLRPEDAAVYTCAVGDGDYCSTYTCAAEVEYDYWGQGTLVTVSS
notes: also called variant of BBB00533
With B15 the koff [4] was 0.00946 s⁻¹, the “off-rate ratio kd pH5.5/kd pH7.4” value [5] was 1.74 and the koff [6] was 0.00545 s⁻¹.

B16: BBB00694 (VHH)
VHH: B15 VHH with G26H
notes: Histidine mutant
B16 was tested, and the koff [4] was 0.00728 s⁻¹, the “off-rate ratio kd pH5.5/kd pH7.4” value [5] was 1.35 and the koff [6] was 0.00538 s⁻¹.

B17: BBB00695 (VHH)
VHH: B15 VHH with R27H
notes: Histidine mutant
In the case of B17, the koff [4] is reported as 0.00874 s⁻¹, the “off-rate ratio kd pH5.5/kd pH7.4” value [5] is reported as 1.51 and the koff [6] is reported as 0.00577 s⁻¹.

B18: BBB00697 (VHH)
VHH: B15 VHH with F29H
notes: also called histidine mutant of BBB00515
In the case of B18, the koff [4] is reported as 0.0107 s⁻¹, the “off-rate ratio kd pH5.5/kd pH7.4” value [5] is reported as 1.79 and the koff [6] is reported as 0.00596 s⁻¹.

B19: BBB00698 (VHH)
VHH: B15 VHH with N30H
notes: as for B18
With B19 the koff [4] was 0.0109 s⁻¹, the “off-rate ratio kd pH5.5/kd pH7.4” value [5] was 2.15 and the koff [6] was 0.00506 s⁻¹.

B20: BBB00699 (VHH)
VHH: B15 VHH with Y31H
notes: Histidine mutant
In the case of B20, the koff [4] is reported as 0.00858 s⁻¹, the “off-rate ratio kd pH5.5/kd pH7.4” value [5] is reported as 1.64 and the koff [6] is reported as 0.00524 s⁻¹.

B21: BBB00704 (VHH)
VHH: B15 VHH with I50H
notes: as for B18
With B21 the koff [4] was 0.00911 s⁻¹, the “off-rate ratio kd pH5.5/kd pH7.4” value [5] was 2.55 and the koff [6] was 0.00358 s⁻¹.

B22: BBB00707 (VHH)
VHH: B15 VHH with K53H
notes: Histidine mutant
For B22, the koff [4] was 0.00632 s⁻¹, the “off-rate ratio kd pH5.5/kd pH7.4” value [5] was 1.44 and the koff [6] was 0.00439 s⁻¹.

B23: BBB00708 (VHH)
VHH: B15 VHH with D54H
notes: Histidine mutant
In the case of B23, the koff [4] is reported as 0.0086 s⁻¹, the “off-rate ratio kd pH5.5/kd pH7.4” value [5] is reported as 1.57 and the koff [6] is reported as 0.00547 s⁻¹.

B24: BBB00709 (VHH)
VHH: B15 VHH with G55H
notes: as for B18
B24 was tested, and the koff [4] was 0.00937 s⁻¹, the “off-rate ratio kd pH5.5/kd pH7.4” value [5] was 1.84 and the koff [6] was 0.00511 s⁻¹.

B25: BBB00710 (VHH)
VHH: B15 VHH with S56H
notes: as for B18
B25 was tested, and the koff [4] was 0.0126 s⁻¹, the “off-rate ratio kd pH5.5/kd pH7.4” value [5] was 2.84 and the koff [6] was 0.00444 s⁻¹.

B26: BBB00716 (VHH)
VHH: B15 VHH with D101H
notes: Histidine mutant
For B26, the koff [4] was 0.00904 s⁻¹, the “off-rate ratio kd pH5.5/kd pH7.4” value [5] was 1.7 and the koff [6] was 0.00533 s⁻¹.

B27: BBB00718 (VHH)
VHH: B15 VHH with S104H
notes: as for B18
B27 was tested, and the koff [4] was 0.0154 s⁻¹, the “off-rate ratio kd pH5.5/kd pH7.4” value [5] was 2.21 and the koff [6] was 0.00695 s⁻¹.

B28: BBB00719 (VHH)
VHH: B15 VHH with T105H
notes: Histidine mutant
With B28 the koff [4] was 0.0091 s⁻¹, the “off-rate ratio kd pH5.5/kd pH7.4” value [5] was 1.55 and the koff [6] was 0.00586 s⁻¹.

B29: BBB00728 (VHH)
VHH: B15 VHH with D115H
notes: Histidine mutant
With B29 the koff [4] was 0.0127 s⁻¹, the “off-rate ratio kd pH5.5/kd pH7.4” value [5] was 1.62 and the koff [6] was 0.00787 s⁻¹.

B30: BBB00729 (VHH)
VHH: B15 VHH with Y116H
notes: as for B18
For B30, the koff [4] was 0.0113 s⁻¹, the “off-rate ratio kd pH5.5/kd pH7.4” value [5] was 2.01 and the koff [6] was 0.00562 s⁻¹.

Source: patent US20260274981A1 (VIB VZW, published 2026)
